Results on 24 molecules are retold here after article PMC9352680, “A comprehensive thermodynamic model for RNA binding by the Saccharomyces cerevisiae Pumilio protein PUF4”.

First the molecules themselves.
T1: PUF4 RNA-binding domain (Saccharomyces cerevisiae, UniProt P25339 537-888)
T1 sequence: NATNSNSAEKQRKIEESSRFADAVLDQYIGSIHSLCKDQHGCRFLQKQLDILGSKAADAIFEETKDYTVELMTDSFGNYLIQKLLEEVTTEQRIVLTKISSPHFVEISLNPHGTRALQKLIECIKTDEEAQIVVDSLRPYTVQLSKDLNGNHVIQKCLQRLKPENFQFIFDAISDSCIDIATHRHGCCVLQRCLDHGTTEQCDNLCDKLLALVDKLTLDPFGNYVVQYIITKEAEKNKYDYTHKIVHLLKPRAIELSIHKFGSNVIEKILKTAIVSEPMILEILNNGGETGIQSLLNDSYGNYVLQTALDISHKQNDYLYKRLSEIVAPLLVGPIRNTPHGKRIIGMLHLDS

The Kd is the equilibrium constant for the complex coming apart. Higher therefore signals weaker binding.

Bounds are passed on as bounds.

This data set has as its target T1, PUF4 RNA-binding domain. The data set is described as follows: Mg; RNA-MaP; 20 mM Na-HEPES pH 7.4, 30 mM KOAc, 0.75 mM MgCl2, 0.1% Tween-20, 5% glycerol, 0.1 mg/mL BSA, 2 mM DTT; 25 C; 0.0125-409.6 nM protein. Conditions: tags: N-His6-TEV cleaved; C-SNAP kept, Cy3B-labelled; label: tethered on chip by stalled RNA polymerase.
As for UCUCUUGCACACUUAUUAUUUCUCUU (ssRNA) [Id_ii_S1_P5E.4_K5.3_C5.2_[C-2G]_[T-1C]_H5.3_A5.1_F5.1_T5.2_[A12T]], binding was put at a Kd of 1420 nM.
The same measure for UCUCUUGCACACUUAUUACAUCUCUU (ssRNA) [Id_ii_S1_P5E.4_K5.3_C5.2_[C-2G]_[T-1C]_H5.3_A5.1_F5.1_T5.2_[T11C]]: 1210 nM; for UCUCUUCUUAUAUUAUUAAAUCUCUU (ssRNA) [Id_ii_S1_P5E.3_K5.2_C5.2_H5.2_A5.1_F5.1_T5.2_[T11A]]: 730 nM.
The value for UCUCUUCUUAUAUUAUUAAUUCUCUU (ssRNA) [Id_ii_S1_P5E.3_K5.2_C5.2_H5.2_A5.1_F5.1_T5.2_[T11A]_[A12T]] was 460 nM; that for UCUCUUGUACACUUAUUAGCUCUCUU (ssRNA) [Id_ii_S1_P5E.4_K5.3_C5.2_[C-2G]_H5.3_A5.1_F5.1_T5.2_[T11G]_[A12C]] was 5.16 nM; that for UCUCUUCUUAUAUUAUUACAUCUCUU (ssRNA) [Id_ii_S1_P5E.3_K5.2_C5.2_H5.2_A5.1_F5.1_T5.2_[T11C]] was 471 nM.
The value for UCUCUUGGACACUUAUUAUAUCUCUU (ssRNA) [Id_ii_S1_P5E.4_K5.3_C5.2_[C-2G]_[T-1G]_H5.3_A5.1_F5.1_T5.2] was above 2300 nM; that for UCUCUUGUACACUUAUUACCUCUCUU (ssRNA) [Id_ii_S1_P5E.4_K5.3_C5.2_[C-2G]_H5.3_A5.1_F5.1_T5.2_[T11C]_[A12C]] was 3.22 nM; that for UCUCUUCUUAUAUUAUUACUUCUCUU (ssRNA) [Id_ii_S1_P5E.3_K5.2_C5.2_H5.2_A5.1_F5.1_T5.2_[T11C]_[A12T]] was 439 nM.
UCUCUUGCACACUUAUUACUUCUCUU (ssRNA) [Id_ii_S1_P5E.4_K5.3_C5.2_[C-2G]_[T-1C]_H5.3_A5.1_F5.1_T5.2_[T11C]_[A12T]] yielded a Kd of 1530 nM.
The value for UCUCUUUGUAUUACUCUCUCUU (ssRNA) [Ib_S1_P5E.1_K5.1_C5.1_H5.1_A5.1_F5.1_[T8C]_[A10C]_T5.1] was 133 nM; that for UCUCUUGCACACUUAUUAUCUCUCUU (ssRNA) [Id_ii_S1_P5E.4_K5.3_C5.2_[C-2G]_[T-1C]_H5.3_A5.1_F5.1_T5.2_[A12C]] was 1160 nM; that for UCUCUUGCACACUUAUUAAUUCUCUU (ssRNA) [Id_ii_S1_P5E.4_K5.3_C5.2_[C-2G]_[T-1C]_H5.3_A5.1_F5.1_T5.2_[T11A]_[A12T]] was 1370 nM.
UCUCUUGCACACUUAUUACGUCUCUU (ssRNA) [Id_ii_S1_P5E.4_K5.3_C5.2_[C-2G]_[T-1C]_H5.3_A5.1_F5.1_T5.2_[T11C]_[A12G]] registered a dissociation constant Kd above 2300 nM.
The same measure for UCUCUUUGUAUUACUGUCUCUU (ssRNA) [Ib_S1_P5E.1_K5.1_C5.1_H5.1_A5.1_F5.1_[T8C]_[A10G]_T5.1]: 71.2 nM; for UCUCUUGCACACUUAUUAUAUCUCUU (ssRNA) [Id_ii_S1_P5E.4_K5.3_C5.2_[C-2G]_[T-1C]_H5.3_A5.1_F5.1_T5.2]: 766 nM; for UCUCUUGCACACUUAUUAACUCUCUU (ssRNA) [Id_ii_S1_P5E.4_K5.3_C5.2_[C-2G]_[T-1C]_H5.3_A5.1_F5.1_T5.2_[T11A]_[A12C]]: 1890 nM.
The molecule UCUCUUCUUAUAUUAUUACCUCUCUU (ssRNA) [Id_ii_S1_P5E.3_K5.2_C5.2_H5.2_A5.1_F5.1_T5.2_[T11C]_[A12C]] yielded an equilibrium dissociation constant (Kd) of 571 nM.
The same measure for UCUCUUGGACACUUAUUAACUCUCUU (ssRNA) [Id_ii_S1_P5E.4_K5.3_C5.2_[C-2G]_[T-1G]_H5.3_A5.1_F5.1_T5.2_[T11A]_[A12C]]: above 2300 nM.
The same measure for UCUCUUCUUAUAUUAUUAUUUCUCUU (ssRNA) [Id_ii_S1_P5E.3_K5.2_C5.2_H5.2_A5.1_F5.1_T5.2_[A12T]]: 228 nM.
The same measure for UCUCUUGCACACUUAUUACCUCUCUU (ssRNA) [Id_ii_S1_P5E.4_K5.3_C5.2_[C-2G]_[T-1C]_H5.3_A5.1_F5.1_T5.2_[T11C]_[A12C]]: 1320 nM; for UCUCUUCUUAUAUUAUUAUCUCUCUU (ssRNA) [Id_ii_S1_P5E.3_K5.2_C5.2_H5.2_A5.1_F5.1_T5.2_[A12C]]: 491 nM; for UCUCUUCUUAUAUUAUUACGUCUCUU (ssRNA) [Id_ii_S1_P5E.3_K5.2_C5.2_H5.2_A5.1_F5.1_T5.2_[T11C]_[A12G]]: 447 nM.
In turn, UCUCUUCUUAUAUUAUUAACUCUCUU (ssRNA) [Id_ii_S1_P5E.3_K5.2_C5.2_H5.2_A5.1_F5.1_T5.2_[T11A]_[A12C]] had a Kd of 476 nM.
